According to patent US20210340231A1 (FAPON BIOTECH, published 2021):

molecular target: T1, CTNI quality control recombinant protein (PK2-CTNI-1, 170120, produced by the applicant) (human, UniProt P19429 2-210, limits assumed); test: AMC sensor kinetics, antibody captured, cTnI analyte
T1 construct: also called cardiac troponin I
Description: Using the AMC sensor, the purified antibody was diluted with PBST to 10 μg/ml, and the CTNI quality control recombinant protein (PK2-CTNI-1, 170120, produced by the applicant) was serially diluted with PBST to 400 nmol/ml, 200 nmol/ml, 100 nmol/ml, 50 nmol/ml, 25 nmol/ml, 12.5 nmol/ml, 6.25 nmol/ml, and 0 nmol/ml.

T1 sequence (P19429 2-210 limits assumed): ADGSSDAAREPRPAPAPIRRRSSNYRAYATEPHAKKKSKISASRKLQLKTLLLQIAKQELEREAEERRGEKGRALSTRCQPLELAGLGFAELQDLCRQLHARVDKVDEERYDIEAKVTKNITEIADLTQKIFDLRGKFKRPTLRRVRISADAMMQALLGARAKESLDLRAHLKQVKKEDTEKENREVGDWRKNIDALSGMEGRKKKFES

Row | Kd | koff | kon | Binder
1 | 0.865 nM | 0.000311 s⁻¹ | 359000 M⁻¹ s⁻¹ | Mutation 1-1 (antibody, V domains shown, built as for Mutation 1) VH: EVQLQQSGAELVKPGASVKLSCTASGFNLKDYYMHWMKQRTEQGLDWIGRIDPEDAETKYAPEFQGKATITADTSSNTAYLQLSTLTSEDTAVYYCARYYSSYLPFVYWGQGTLVTASA VL: DVVMTQTPLSLSVSLGDQASISCRSSQSILYSNRHTYLHWYLQKPGQSPKLLIFQLSNRFSGVPDRFSGSGSGTDFTLKINRVEAEDLGVYFCSQSTHLPYTFGSGTKLEIKR
2 | 0.676 nM | 0.000477 s⁻¹ | 705000 M⁻¹ s⁻¹ | Mutation 1-21 (antibody, V domains shown, built as for Mutation 1) VH: EVQLQQSGAELVKPGASVKLSCTASGFNLKDYYMHWMKQRTEQGLDWIGRIDPEDAETKYAPEFQGKATITADTSSNTAYLQLSTLTSEDTAVYYCARYYSSYLPFVYWGQGTLVTASA VL: DVVMTQTPLSLSVSLGDQASISCRSSQSLLYSNRHTYLHWYLQKPGQSPKLLIFQLSNRFSGVPDRFSGSGSGTDFTLKINRVEAEDLGVYFCSQSTHLPFTFGSGTKLEIKR
3 | 0.623 nM | 0.000268 s⁻¹ | 430000 M⁻¹ s⁻¹ | Mutation 1-2 (antibody, V domains shown, built as for Mutation 1) VH: EVQLQQSGAELVKPGASVKLSCTASGFNIKDYFMHWMKQRTEQGLDWIGRIDPEDGETRYAPEFQGKATITADTSSNTAYLQLSTLTSEDTAVYYCARYYSSYVPFVYWGQGTLVTASA VL: DVVMTQTPLSLSVSLGDQASISCRSSQSLIYSNRHTYLHWYLQKPGQSPKLLIFQVSNRFSGVPDRFSGSGSGTDFTLKINRVEAEDLGVYFCSQSTHIPFTFGSGTKLEIKR
4 | 0.917 nM | 0.000245 s⁻¹ | 267000 M⁻¹ s⁻¹ | Mutation 1-15 (antibody, V domains shown, built as for Mutation 1) VH: EVQLQQSGAELVKPGASVKLSCTASGFNIKDYYMHWMKQRTEQGLDWIGRIDPEDGETRYAPEFQGKATITADTSSNTAYLQLSTLTSEDTAVYYCARYYSSYVPFVYWGQGTLVTASA VL: DVVMTQTPLSLSVSLGDQASISCRSSQSIIYSNRHTYLHWYLQKPGQSPKLLIFQVSNRFSGVPDRFSGSGSGTDFTLKINRVEAEDLGVYFCSQSTHIPYTFGSGTKLEIKR
5 | 0.722 nM | 0.000565 s⁻¹ | 782000 M⁻¹ s⁻¹ | Mutation 1-17 (antibody, V domains shown, built as for Mutation 1) VH: EVQLQQSGAELVKPGASVKLSCTASGFNLKDYYMHWMKQRTEQGLDWIGRIDPEDAETRYAPEFQGKATITADTSSNTAYLQLSTLTSEDTAVYYCARYYSSYLPFVYWGQGTLVTASA VL: DVVMTQTPLSLSVSLGDQASISCRSSQSIIYSNRHTYLHWYLQKPGQSPKLLIFQLSNRFSGVPDRFSGSGSGTDFTLKINRVEAEDLGVYFCSQSTHIPYTFGSGTKLEIKR
6 | 0.806 nM | 0.000251 s⁻¹ | 311000 M⁻¹ s⁻¹ | Mutation 1-13 (antibody, V domains shown, built as for Mutation 1) VH: EVQLQQSGAELVKPGASVKLSCTASGFNLKDYYMHWMKQRTEQGLDWIGRIDPEDAETRYAPEFQGKATITADTSSNTAYLQLSTLTSEDTAVYYCARYYSSYVPFVYWGQGTLVTASA VL: DVVMTQTPLSLSVSLGDQASISCRSSQSLIYSNRHTYLHWYLQKPGQSPKLLIFQVSNRFSGVPDRFSGSGSGTDFTLKINRVEAEDLGVYFCSQSTHLPFTFGSGTKLEIKR
7 | 0.922 nM | 0.000413 s⁻¹ | 448000 M⁻¹ s⁻¹ | Mutation 1-10 (antibody, V domains shown, built as for Mutation 1) VH: EVQLQQSGAELVKPGASVKLSCTASGFNIKDYFMHWMKQRTEQGLDWIGRIDPEDAETRYAPEFQGKATITADTSSNTAYLQLSTLTSEDTAVYYCARYYSSYLPFVYWGQGTLVTASA VL: DVVMTQTPLSLSVSLGDQASISCRSSQSIIYSNRHTYLHWYLQKPGQSPKLLIFQLSNRFSGVPDRFSGSGSGTDFTLKINRVEAEDLGVYFCSQSTHLPYTFGSGTKLEIKR
8 | 0.834 nM | 0.000258 s⁻¹ | 309000 M⁻¹ s⁻¹ | Mutation 1-12 (antibody, V domains shown, built as for Mutation 1) VH: EVQLQQSGAELVKPGASVKLSCTASGFNLKDYFMHWMKQRTEQGLDWIGRIDPEDGETKYAPEFQGKATITADTSSNTAYLQLSTLTSEDTAVYYCARYYSSYLPFVYWGQGTLVTASA VL: DVVMTQTPLSLSVSLGDQASISCRSSQSILYSNRHTYLHWYLQKPGQSPKLLIFQLSNRFSGVPDRFSGSGSGTDFTLKINRVEAEDLGVYFCSQSTHLPYTFGSGTKLEIKR
9 | 0.945 nM | 0.000158 s⁻¹ | 167000 M⁻¹ s⁻¹ | Mutation 1-20 (antibody, V domains shown, built as for Mutation 1) VH: EVQLQQSGAELVKPGASVKLSCTASGFNLKDYFMHWMKQRTEQGLDWIGRIDPEDGETKYAPEFQGKATITADTSSNTAYLQLSTLTSEDTAVYYCARYYSSYVPFVYWGQGTLVTASA VL: DVVMTQTPLSLSVSLGDQASISCRSSQSLIYSNRHTYLHWYLQKPGQSPKLLIFQVSNRFSGVPDRFSGSGSGTDFTLKINRVEAEDLGVYFCSQSTHIPFTFGSGTKLEIKR
10 | 0.676 nM | 0.000122 s⁻¹ | 181000 M⁻¹ s⁻¹ | Mutation 1-3 (antibody, V domains shown, built as for Mutation 1) VH: EVQLQQSGAELVKPGASVKLSCTASGFNIKDYYMHWMKQRTEQGLDWIGRIDPEDGETKYAPEFQGKATITADTSSNTAYLQLSTLTSEDTAVYYCARYYSSYLPFVYWGQGTLVTASA VL: DVVMTQTPLSLSVSLGDQASISCRSSQSLLYSNRHTYLHWYLQKPGQSPKLLIFQLSNRFSGVPDRFSGSGSGTDFTLKINRVEAEDLGVYFCSQSTHIPYTFGSGTKLEIKR
11 | 0.804 nM | 0.00056 s⁻¹ | 697000 M⁻¹ s⁻¹ | Mutation 1-7 (antibody, V domains shown, built as for Mutation 1) VH: EVQLQQSGAELVKPGASVKLSCTASGFNIKDYYMHWMKQRTEQGLDWIGRIDPEDAETRYAPEFQGKATITADTSSNTAYLQLSTLTSEDTAVYYCARYYSSYIPFVYWGQGTLVTASA VL: DVVMTQTPLSLSVSLGDQASISCRSSQSLIYSNRHTYLHWYLQKPGQSPKLLIFQISNRFSGVPDRFSGSGSGTDFTLKINRVEAEDLGVYFCSQSTHLPYTFGSGTKLEIKR
12 | 0.623 nM | 0.0001 s⁻¹ | 161000 M⁻¹ s⁻¹ | Mutation 1-5 (antibody, V domains shown, built as for Mutation 1) VH: EVQLQQSGAELVKPGASVKLSCTASGFNLKDYYMHWMKQRTEQGLDWIGRIDPEDGETRYAPEFQGKATITADTSSNTAYLQLSTLTSEDTAVYYCARYYSSYIPFVYWGQGTLVTASA VL: DVVMTQTPLSLSVSLGDQASISCRSSQSIIYSNRHTYLHWYLQKPGQSPKLLIFQISNRFSGVPDRFSGSGSGTDFTLKINRVEAEDLGVYFCSQSTHIPFTFGSGTKLEIKR
13 | 0.303 nM | 2.58e-05 s⁻¹ | 85100 M⁻¹ s⁻¹ | Mutation 1-8 (antibody, V domains shown, built as for Mutation 1) VH: EVQLQQSGAELVKPGASVKLSCTASGFNLKDYFMHWMKQRTEQGLDWIGRIDPEDGETRYAPEFQGKATITADTSSNTAYLQLSTLTSEDTAVYYCARYYSSYLPFVYWGQGTLVTASA VL: DVVMTQTPLSLSVSLGDQASISCRSSQSLIYSNRHTYLHWYLQKPGQSPKLLIFQLSNRFSGVPDRFSGSGSGTDFTLKINRVEAEDLGVYFCSQSTHLPFTFGSGTKLEIKR
14 | 0.692 nM | 0.00023 s⁻¹ | 333000 M⁻¹ s⁻¹ | Mutation 1-26 (antibody, V domains shown, built as for Mutation 1) VH: EVQLQQSGAELVKPGASVKLSCTASGFNIKDYFMHWMKQRTEQGLDWIGRIDPEDGETKYAPEFQGKATITADTSSNTAYLQLSTLTSEDTAVYYCARYYSSYLPFVYWGQGTLVTASA VL: DVVMTQTPLSLSVSLGDQASISCRSSQSILYSNRHTYLHWYLQKPGQSPKLLIFQLSNRFSGVPDRFSGSGSGTDFTLKINRVEAEDLGVYFCSQSTHLPFTFGSGTKLEIKR
15 | 0.662 nM | 0.000101 s⁻¹ | 152000 M⁻¹ s⁻¹ | Mutation 1-16 (antibody, V domains shown, built as for Mutation 1) VH: EVQLQQSGAELVKPGASVKLSCTASGFNLKDYFMHWMKQRTEQGLDWIGRIDPEDAETRYAPEFQGKATITADTSSNTAYLQLSTLTSEDTAVYYCARYYSSYIPFVYWGQGTLVTASA VL: DVVMTQTPLSLSVSLGDQASISCRSSQSLLYSNRHTYLHWYLQKPGQSPKLLIFQISNRFSGVPDRFSGSGSGTDFTLKINRVEAEDLGVYFCSQSTHLPYTFGSGTKLEIKR
16 | 0.487 nM | 0.000191 s⁻¹ | 393000 M⁻¹ s⁻¹ | Mutation 1-19 (antibody, V domains shown, built as for Mutation 1) VH: EVQLQQSGAELVKPGASVKLSCTASGFNIKDYYMHWMKQRTEQGLDWIGRIDPEDGETRYAPEFQGKATITADTSSNTAYLQLSTLTSEDTAVYYCARYYSSYLPFVYWGQGTLVTASA VL: DVVMTQTPLSLSVSLGDQASISCRSSQSLIYSNRHTYLHWYLQKPGQSPKLLIFQLSNRFSGVPDRFSGSGSGTDFTLKINRVEAEDLGVYFCSQSTHIPFTFGSGTKLEIKR
17 | 0.725 nM | 0.000215 s⁻¹ | 297000 M⁻¹ s⁻¹ | Mutation 1-22 (antibody, V domains shown, built as for Mutation 1) VH: EVQLQQSGAELVKPGASVKLSCTASGFNIKDYFMHWMKQRTEQGLDWIGRIDPEDGETRYAPEFQGKATITADTSSNTAYLQLSTLTSEDTAVYYCARYYSSYVPFVYWGQGTLVTASA VL: DVVMTQTPLSLSVSLGDQASISCRSSQSIIYSNRHTYLHWYLQKPGQSPKLLIFQVSNRFSGVPDRFSGSGSGTDFTLKINRVEAEDLGVYFCSQSTHLPYTFGSGTKLEIKR
18 | 0.97 nM | 0.000659 s⁻¹ | 679000 M⁻¹ s⁻¹ | Mutation 1-25 (antibody, V domains shown, built as for Mutation 1) VH: EVQLQQSGAELVKPGASVKLSCTASGFNLKDYYMHWMKQRTEQGLDWIGRIDPEDGETRYAPEFQGKATITADTSSNTAYLQLSTLTSEDTAVYYCARYYSSYIPFVYWGQGTLVTASA VL: DVVMTQTPLSLSVSLGDQASISCRSSQSIIYSNRHTYLHWYLQKPGQSPKLLIFQISNRFSGVPDRFSGSGSGTDFTLKINRVEAEDLGVYFCSQSTHLPYTFGSGTKLEIKR
19 | 0.866 nM | 9.18e-05 s⁻¹ | 106000 M⁻¹ s⁻¹ | Mutation 1-9 (antibody, V domains shown, built as for Mutation 1) VH: EVQLQQSGAELVKPGASVKLSCTASGFNLKDYYMHWMKQRTEQGLDWIGRIDPEDGETKYAPEFQGKATITADTSSNTAYLQLSTLTSEDTAVYYCARYYSSYIPFVYWGQGTLVTASA VL: DVVMTQTPLSLSVSLGDQASISCRSSQSLLYSNRHTYLHWYLQKPGQSPKLLIFQISNRFSGVPDRFSGSGSGTDFTLKINRVEAEDLGVYFCSQSTHIPYTFGSGTKLEIKR
